Assay results published in doi:10.1101/2021.10.18.464838, “Two distinct classes of co-chaperones compete for the EEVD motif in heat shock protein 70 (Hsp70) to tune its activity” (bioRxiv, 2021).
“And” between values parts separate entries of the source, which are not always exact repeats. Equal values may be shown once. Where no end group is shown, it is not given here. The star is where a group is joined. FITC = O=C1OC2(c3ccc(O)cc3Oc3cc(O)ccc32)c2ccc(NC(=S)*)cc21; Ahx = NCCCCCC(=O)O

B3: Hsp72 phosphomimetic T636E tracer FITC-Ahx-GSGPEIEEVD (peptide)
peptide: GSGPEIEEVD-OH
modifications: not fully specified (N-terminus); printed as FITC-Ahx-GSGPEIEEVD
notes: last 10 residues of Hsp72/HSPA1A with the P6 Thr changed to Glu; also called T636E Hsp72 fluorescent tracer; P6 Thr to Glu; source: synthetic peptide, bought: GenScript

Key:
Conditions in all cases: both partners purified
[1] = target: T1, DnaJB4 (recombinant, human, full length, wild type) (human, UniProt Q9UDY4 1-337); experiment: fluorescence polarisation; competition: 100 µM unlabeled peptide, 5 µM DnaJB4, 20 nM Hsp72 tracer in JDP binding buffer; room temperature, 30 min; tracer displacement relative to DMSO control
T1 construct: DnaJB4, human, full length; Expressed from pMCSG7 with a TEV site; also called WT DnaJB4; Class B JDP; source: E. coli BL21 (DE3) Rosetta, purified (Ni-NTA, TEV cleavage, SEC); not shown: His6, N-terminal, cleaved

[2] = target: B3; experiment: fluorescence polarisation; saturation binding: 20 nM Hsp72 tracer with CHIP 110 to 0.013 µM in 2X dilutions; 50 mM HEPES, 50 mM KCl, 0.01% Triton X-100, pH 7.4; room temperature, 30 min
[3] = target: T1, DnaJB4 (recombinant, human, full …); experiment: fluorescence polarisation; saturation binding: 20 nM Hsp72 tracer with DnaJB4 (WT or QPD) 110 to 0.013 µM in 2X dilutions; 50 mM Tris, 15 mM NaCl, 1 mM DTT, 0.01% Triton X-100, pH 8.0; room temperature, 30 min

T1 sequence (Q9UDY4 whole entry): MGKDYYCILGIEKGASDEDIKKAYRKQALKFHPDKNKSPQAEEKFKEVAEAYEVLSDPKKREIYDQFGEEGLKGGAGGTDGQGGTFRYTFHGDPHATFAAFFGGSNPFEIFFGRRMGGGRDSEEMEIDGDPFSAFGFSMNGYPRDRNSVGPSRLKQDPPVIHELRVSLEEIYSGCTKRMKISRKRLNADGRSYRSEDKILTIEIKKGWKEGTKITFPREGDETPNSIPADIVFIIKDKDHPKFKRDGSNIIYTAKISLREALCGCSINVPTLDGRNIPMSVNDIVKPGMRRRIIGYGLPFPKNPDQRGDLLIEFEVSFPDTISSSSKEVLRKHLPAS

B1: Hsp72 C-terminal 7-mer peptide PTIEEVD (peptide)
peptide: Ac-PTIEEVD-OH
notes: last 7 residues of Hsp72/HSPA1A; also called last 7 amino acids of Hsp70's C-terminus; source: synthetic peptide, bought: GenScript
[1]
  binding result: binds

B2: CHIP (recombinant human) (natural protein, UniProt Q9UNE7 1-303, looked up)
chain: MKGKEEKEGGARLGAGGGSPEKSPSAQELKEQGNRLFVGRKYPEAAACYGRAITRNPLVAVYYTNRALCYLKMQQHEQALADCRRALELDGQSVKAHFFLGQCQLEMESYDEAIANLQRAYSLAKEQRLNFGDDIPSALRIAKKKRWNSIEERRIHQESELHSYLSRLIAAERERELEECQRNHEGDEDDSHVRAQQACIEAKHDKYMADMDELFSQVDEKRKKRDIPDYLCGKISFELMREPCITPSGITYDRKDIEEHLQRVGHFDPVTRSPLTQEQLIPNLAMKEVIDAFISENGWVEDY
notes: CHIP, human; also called E3 ubiquitin ligase CHIP; TPR domain co-chaperone; source: E. coli BL21(DE3), purified (Ni-NTA, TEV cleavage, SEC); not shown: His6, N-terminal, cleaved
[2]
  fold weakening of the affinity against the WT tracer: 5 fold

## B3
[3]
  binding result: binds

B4: Hsp72 tracer FITC-Ahx-GSGPTIEEVD (peptide)
peptide: {FITC-Ahx}-GSGPTIEEVD-OH
modifications: not fully specified; printed as FITC-Ahx-GSGPTIEEVD
notes: last 10 residues of Hsp72/HSPA1A; also called EEVD tracer; fluorescent Hsp72 peptide; source: synthetic peptide, bought: GenScript
[3]
  Kd: 1910 nM and 1690 nM

B5: Hsp72 10-mer peptide with the P5 Ile replaced by Met (peptide, UniProt P0DMV8 632-641, looked up)
peptide: Ac-GSGPTMEEVD-OH
notes: also called P5 Ile to Met mutant; source: synthetic peptide, bought: GenScript
[1]
  binding result: binds
